Data as given in article PMC6776900, “PPM1G forms a PPP‐type phosphatase holoenzyme with B56δ that maintains adherens junction integrity” (EMBO Reports, 2019).

How the values were obtained:
Assay in all cases: BLI; Octet Red 96; His-tagged PPM1G or PPP2R1A immobilised on Ni-NTA biosensors, GST-B56δ proteins in solution (100–400 nm); 50 mM Tris pH 7.5, 300 mM NaCl, 0.01% NP-40 Igepal, 1 mM DTT; 25 °C
Conditions in all cases: both partners purified
GST-B56δ H282A = target: T1, GST-B56δ H282A (human, UniProt Q14738 1-602, H282A)
T1 construct: B56δ (PPP2R5D), human cDNA, full length, point mutant; source: E. coli BL21 (DE3), purified (glutathione Sepharose)

GST-B56δ L183A = target: T2, GST-B56δ L183A (human, UniProt Q14738 1-602, L183A)
T2 construct: B56δ (PPP2R5D), human cDNA, full length, point mutant; source: E. coli BL21 (DE3), purified (glutathione Sepharose)

GST-B56δ = target: T3, GST-B56δ (human, UniProt Q14738 1-602)
T3 construct: PP2A regulatory subunit B56δ (PPP2R5D), human cDNA, full-length protein; also called GST-B56δ wild type (WT); GST-tagged B56δ; source: E. coli BL21 (DE3), purified (glutathione Sepharose)
T3 sequence (Q14738 whole entry, stated change not applied): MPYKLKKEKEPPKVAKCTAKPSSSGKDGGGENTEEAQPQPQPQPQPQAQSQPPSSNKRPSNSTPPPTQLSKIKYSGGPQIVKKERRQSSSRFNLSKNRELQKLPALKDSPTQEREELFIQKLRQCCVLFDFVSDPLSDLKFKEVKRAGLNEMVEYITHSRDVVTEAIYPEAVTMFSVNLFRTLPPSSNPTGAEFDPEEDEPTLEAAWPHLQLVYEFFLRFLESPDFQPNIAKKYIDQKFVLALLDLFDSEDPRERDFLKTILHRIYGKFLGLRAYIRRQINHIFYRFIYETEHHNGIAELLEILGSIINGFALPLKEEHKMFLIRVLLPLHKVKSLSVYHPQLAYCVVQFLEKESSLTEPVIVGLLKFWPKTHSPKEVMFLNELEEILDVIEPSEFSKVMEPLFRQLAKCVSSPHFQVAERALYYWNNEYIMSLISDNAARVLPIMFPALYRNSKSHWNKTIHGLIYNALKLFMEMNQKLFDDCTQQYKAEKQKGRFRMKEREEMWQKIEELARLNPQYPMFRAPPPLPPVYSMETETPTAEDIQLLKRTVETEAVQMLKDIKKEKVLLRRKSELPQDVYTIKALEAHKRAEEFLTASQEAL

T2 sequence (Q14738 whole entry L183A): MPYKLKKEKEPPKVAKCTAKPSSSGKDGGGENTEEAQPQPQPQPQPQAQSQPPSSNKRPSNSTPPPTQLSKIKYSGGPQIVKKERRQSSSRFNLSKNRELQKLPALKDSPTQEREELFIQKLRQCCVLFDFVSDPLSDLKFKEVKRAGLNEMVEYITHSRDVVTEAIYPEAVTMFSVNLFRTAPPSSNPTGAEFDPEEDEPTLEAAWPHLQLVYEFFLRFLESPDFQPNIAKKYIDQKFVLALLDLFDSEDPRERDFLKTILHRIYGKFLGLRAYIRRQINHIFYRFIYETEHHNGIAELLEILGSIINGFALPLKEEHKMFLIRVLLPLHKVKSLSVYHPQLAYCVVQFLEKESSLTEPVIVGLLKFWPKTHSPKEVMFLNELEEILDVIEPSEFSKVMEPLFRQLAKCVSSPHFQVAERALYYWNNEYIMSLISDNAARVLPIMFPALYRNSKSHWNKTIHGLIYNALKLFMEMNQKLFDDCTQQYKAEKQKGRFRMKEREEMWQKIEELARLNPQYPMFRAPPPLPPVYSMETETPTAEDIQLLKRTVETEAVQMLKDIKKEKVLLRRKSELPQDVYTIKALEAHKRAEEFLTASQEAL
T1 sequence (Q14738 whole entry H282A): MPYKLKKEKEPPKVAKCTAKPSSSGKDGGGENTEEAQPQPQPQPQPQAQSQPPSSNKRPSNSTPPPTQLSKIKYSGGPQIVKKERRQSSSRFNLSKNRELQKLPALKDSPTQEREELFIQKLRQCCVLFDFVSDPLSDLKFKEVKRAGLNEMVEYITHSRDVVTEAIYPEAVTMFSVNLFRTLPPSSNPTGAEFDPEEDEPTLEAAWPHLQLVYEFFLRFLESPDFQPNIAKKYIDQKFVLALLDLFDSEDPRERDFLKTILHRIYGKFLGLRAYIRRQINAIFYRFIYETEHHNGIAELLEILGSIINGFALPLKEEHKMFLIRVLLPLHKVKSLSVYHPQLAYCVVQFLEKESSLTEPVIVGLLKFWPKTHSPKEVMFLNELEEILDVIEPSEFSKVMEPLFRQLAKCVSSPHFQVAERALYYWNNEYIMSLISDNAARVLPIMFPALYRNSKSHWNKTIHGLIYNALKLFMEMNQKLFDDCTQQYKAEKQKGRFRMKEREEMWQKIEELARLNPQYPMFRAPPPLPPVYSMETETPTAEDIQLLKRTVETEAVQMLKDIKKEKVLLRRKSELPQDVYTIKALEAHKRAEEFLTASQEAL

B1: 6xHis-tagged PPM1G (enzyme, human, UniProt O15355 1-546, looked up)
chain: MGAYLSQPNTVKCSGDGVGAPRLPLPYGFSAMQGWRVSMEDAHNCIPELDSETAMFSVYDGHGGEEVALYCAKYLPDIIKDQKAYKEGKLQKALEDAFLAIDAKLTTEEVIKELAQIAGRPTEDEDEKEKVADEDDVDNEEAALLHEEATMTIEELLTRYGQNCHKGPPHSKSGGGTGEEPGSQGLNGEAGPEDSTRETPSQENGPTAKAYTGFSSNSERGTEAGQVGEPGIPTGEAGPSCSSASDKLPRVAKSKFFEDSEDESDEAEEEEEDSEECSEEEDGYSSEEAENEEDEDDTEEAEEDDEEEEEEMMVPGMEGKEEPGSDSGTTAVVALIRGKQLIVANAGDSRCVVSEAGKALDMSYDHKPEDEVELARIKNAGGKVTMDGRVNGGLNLSRAIGDHFYKRNKNLPPEEQMISALPDIKVLTLTDDHEFMVIACDGIWNVMSSQEVVDFIQSKISQRDENGELRLLSSIVEELLDQCLAPDTSGDGTGCDNMTCIIICFKPRNTAELQPESGKRKLEEVLSTEGAEENGNSDKKKKAKRD
notes: PPM1G (PP2Cγ); The cloning into a His-tag vector is not described in the methods; also called His-PPM1G; recombinant PPM1G; source: recombinant
In the case of B1, the Kd (GST-B56δ H282A) is reported as 4.38 nM, the Kd (GST-B56δ L183A) is reported as 5.59 nM and the Kd (GST-B56δ) is reported as 5.04 nM.
